Source: patent US20210008166A1 (SPECTRUM PHARMACEUTICALS, published 2021)
Values belong to the molecule of their own block, whether it stands above or below them.

What was measured:
[1] = target: GLP-1R on CHO cells (CHO/GLP-1R); test: cell-based or functional assay
[2] = target: T1, Fc fragment of eflapegrastim (human, UniProt P01861 107-325 = IgG part, aglycosylated (manufactured from recombinant E. coli cells)); test: ELISA with GST-FcγRIIB, anti-GST detection
T1 construct: Unconjugated Fc carrier tested alongside eflapegrastim; also called aglycosylated human IgG4 Fc fragment; immunoglobulin Fc region (IgG4)
T1 sequence (P01861 other isoform, or with tags, fused parts or gaps limits assumed): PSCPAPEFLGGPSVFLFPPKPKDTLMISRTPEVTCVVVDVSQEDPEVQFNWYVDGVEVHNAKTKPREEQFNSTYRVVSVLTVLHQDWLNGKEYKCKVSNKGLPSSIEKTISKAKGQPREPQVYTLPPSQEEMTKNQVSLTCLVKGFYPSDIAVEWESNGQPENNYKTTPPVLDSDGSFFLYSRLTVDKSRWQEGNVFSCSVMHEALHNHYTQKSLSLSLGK
Description: For C1q, FcγRIIB, FcγRIIIA, and FcRn binding assays, serial dilutions of the test materials were added to 96-well microplates coated with C1q, or GST fusion proteins of FcγRIIB or FcγRIIIA, or FcRn αβ2. After incubation and washing, HRP-conjugated anti-C1q antibody was added for C1q binding assay, and rabbit-anti-GST antibody and HRP-conjugated anti-rabbit IgG antibody were sequentially added for FcγRIIB, FcγRIIIA, and FcRn binding assays. The absorbance was measured at 450 nm as described above for FcγRI binding assay.

[3] = target: T2, Chinese hamster ovary (CHO) cell-derived soluble recombinant human G-CSF receptor (R&D Systems, 381-050/CF) (human, UniProt Q99062 25-627); test: SPR (BIAcore 3000), receptor amine-coupled to CM5 chip, analyte 6.25-100 nmol/L, 25 C, 1:1 Langmuir fit
T2 construct: extracellular domain; Bought and amine-coupled to a CM5 chip; also called soluble human G-CSF receptor
T2 sequence (looked up): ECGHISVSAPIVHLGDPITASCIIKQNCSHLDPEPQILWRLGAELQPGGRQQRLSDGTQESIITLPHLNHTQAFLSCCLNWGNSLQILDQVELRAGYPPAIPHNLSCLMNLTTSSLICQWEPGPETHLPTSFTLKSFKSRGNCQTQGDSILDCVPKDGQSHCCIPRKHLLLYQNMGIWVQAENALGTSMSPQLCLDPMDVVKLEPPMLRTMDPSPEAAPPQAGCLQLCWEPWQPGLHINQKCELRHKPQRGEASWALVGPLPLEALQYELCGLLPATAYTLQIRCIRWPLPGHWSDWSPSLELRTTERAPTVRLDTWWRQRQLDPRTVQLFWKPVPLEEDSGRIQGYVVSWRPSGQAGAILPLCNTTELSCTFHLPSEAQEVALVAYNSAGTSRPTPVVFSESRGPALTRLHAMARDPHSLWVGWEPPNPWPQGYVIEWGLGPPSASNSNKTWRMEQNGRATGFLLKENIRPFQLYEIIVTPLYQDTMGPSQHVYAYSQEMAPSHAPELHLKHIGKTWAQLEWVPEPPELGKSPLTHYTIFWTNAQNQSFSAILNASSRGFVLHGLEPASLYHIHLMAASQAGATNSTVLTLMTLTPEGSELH
Description: Surface plasmon resonance technology and the BIAcore 3000 biosensor (GE healthcare) were employed to measure in vitro binding affinity to the G-CSF receptor. Amine-coupling chemistry was used to immobilize the G-CSF receptor on CM5 biosensor chip. […] The CM5 sensor chip surface was activated by injecting a 1:1 mixture of 0.1 mol/L N-hydroxysuccinimide (GE healthcare) and 0.1 mol/L 3-(N,N-dimethylamino)propyl-N-ethylcarbodiamide (GE Healthcare). […] The chip surface was then blocked with ethanolamine/HCl (GE Healthcare), pH 8.5, and washed with a regeneration solution (50 mmol/L NaCl; 5 mmol/L NaOH). […] Binding affinity was calculated using the 1:1 Langmuir fitting model for each test material.

potency relative to the isomer linked at another position of Fc [1]: 6 times
Molecule: CA Exendin (lysine)-PEG-(N-terminus) Fc - Experimental group (Fc fusion)

% vs. Experimental group [1]: 16.1% | EC50 (ng/ml), in vitro activity [1]: 590 ng/mL
Molecule: CA Exendin (lysine)-PEG-(lysine) Fc (Fc fusion)

binding result [2]: no binding
B1: GST fusion protein of FcγRIIB (receptor, UniProt P31994 43-217, looked up)
chain: TPAAPPKAVLKLEPQWINVLQEDSVTLTCRGTHSPESDSIQWFHNGNLIPTHTQPSYRFKANNNDSGEYTCQTGQTSLSDPVHLTVLSEWLVLQTPHLEFQEGETIVLRCHSWKDKPLVKVTFFQNGKSKKFSRSDPNFSIPQANHSHSGDYHCTGNIGYTLYSSKPVTITVQAP
notes: not shown: GST

Kd [3]: 2.9 nM
B2: Pegfilgrastim (Neulasta) (ligand, UniProt P09919-2 31-204, looked up)
chain: TPLGPASSLPQSFLLKCLEQVRKIQGDGAALQEKLCATYKLCHPEELVLLGHSLGIPWAPLSSCPSQALQLAGCLSQLHSGLFLYQGLLQALEGISPELGPTLDTLQLDVADFATTIWQQMEELGMAPALQPTQGAMPAFASAFQRRAGGVLVASHLQSFLEVSYRVLRHLAQP
modifications: 20 kDa polyethylene glycol on the N-terminal methionine residue
notes: Commercial product
